This note sets out measurements from article PMC6681757.

Some results are limits rather than exact numbers.

Assay [1] concerns the target isolated bovine cardiac native thin filaments (NTFs) (bovine) (UniProt Q3ZC07).
Assay [2] shares this target. Kind of assay: co-sedimentation; high-velocity cosedimentation with isolated bovine cardiac NTFs, absence of calcium (pCa 9).
The target in assay [3] is myosin S2Δ, the first 126 amino acids of myosin S2 (cardiac myosin). Kind of assay: MST; C1mC2 species (or native full-length cMyBP-C) titrated against myosin S2Δ; normalized MST curves; conditions in SI Appendix.
Assay [4] has as its target isolated bovine cardiac native thin filaments (NTFs) (bovine) (UniProt Q3ZC07). Kind of assay: co-sedimentation; high-velocity cosedimentation with isolated bovine cardiac NTFs, presence of 32 μmol/L CaCl2 (pCa 4.5).
Assay [5] has as its target myosin S2Δ, the first 126 amino acids of myosin S2 (cardiac myosin).

“C1mC2 bis-phosphorylated by PKA on S288 and S279 (C1mC2-2P) (domain or fragment)”: in assay [1], the EC50 of activation of NTF-stimulated myosin S1 ATPase in the absence of calcium (pCa 9) was determined as 5 μmol/L. Also, the Kd in assay [2] was found to be 20 µM.
As to “C1mC2 monophosphorylated on S288 (C1mC2-1P) (domain or fragment)”, the EC50 of activation of NTF-stimulated myosin S1 ATPase in the absence of calcium (pCa 9) in assay [1] came to 2 μmol/L. For the same substance, the dissociation constant Kd in assay [2] was found to be 20 µM; in assay [3] it was 30 µM.
On to “C1mC2 monophosphorylated on S308 by PKCε (domain or fragment)”, for which the values for the Kd in assay [2] and in assay [3] were 20 µM and 30 µM, respectively.
Consider “C1mC2 tris-phosphorylated by PKA on S288, S279 and S313 (C1mC2-3P) (domain or fragment)”, for which the dissociation constant (Kd) in assay [2] and in assay [4] was 60 µM in each case.
“C1mC2, recombinant fragment of rat cardiac myosin binding protein-C containing domains C1, the m-motif and C2, unphosphorylated (domain or fragment)”: the EC50 of activation of thick filament structure (RLC BC probe orientation) in ventricular trabeculae, pCa 9 in assay [5] stood at 10 μmol/L. In addition, in assay [1], the EC50 of activation of NTF-stimulated myosin S1 ATPase in the absence of calcium (pCa 9) came to 1 μmol/L; the IC50 of inhibition of NTF-stimulated myosin S1 ATPase in the absence of calcium (pCa 9), [C1mC2] > 2 μmol/L was 3 μmol/L; the IC50 of inhibition of myosin S1-NTF ATPase during full calcium activation (pCa 4) turned out to be 2 μmol/L; the maximal inhibition of myosin S1-NTF ATPase during full calcium activation (pCa 4) turned out to be 50%. Further, the Kd in assay [2] amounted to 20 µM. In assay [3], this substance displayed a KD of the high-affinity binding site of 20.7 µM and a KD of the low-affinity binding site greater than 400 µM.
“C1mC2-S288A, unphosphorylated (domain or fragment)” had a Kd in assay [3] of 20 µM.
Same read-out and setting: with “λ-protein phosphatase–treated native full-length cMyBP-C isolated from rat ventricular tissue (from UniProt P56741 1-1274) (natural protein)” the figure was 24.2 µM.

As usually defined, the Kd is the equilibrium constant for the complex coming apart.
